Patent US20250340641A1 (KYMAB, published 2025)

T1: human ICOS expressed on the surface of cells (human, UniProt Q9Y6W8 21-199)
T1 construct: also called hICOS; Human ICOS CHO
T1 sequence: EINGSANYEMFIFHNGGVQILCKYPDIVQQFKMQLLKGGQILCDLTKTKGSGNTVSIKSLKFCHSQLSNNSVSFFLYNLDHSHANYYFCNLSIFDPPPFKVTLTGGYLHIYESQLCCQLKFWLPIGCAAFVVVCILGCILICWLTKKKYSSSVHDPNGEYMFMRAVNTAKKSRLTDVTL

T2: mouse ICOS expressed on the surface of CHO-S cells (mouse, UniProt Q9WVS0 21-200)
T2 construct: whole, on cells; also called mICOS; Mouse ICOS CHO
T2 sequence (looked up): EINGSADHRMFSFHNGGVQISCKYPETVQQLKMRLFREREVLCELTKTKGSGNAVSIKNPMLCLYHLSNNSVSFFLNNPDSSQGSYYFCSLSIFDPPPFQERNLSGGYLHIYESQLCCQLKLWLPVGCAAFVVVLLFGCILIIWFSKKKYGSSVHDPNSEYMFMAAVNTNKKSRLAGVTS

B1: CL-61091 (antibody, V domains shown)
VH: QVQLMQSGTEVKKPGASVKVSCKTSGYTFTTYGITWVRQAPGQGLEWMGWISAYSGDTDYAQKFQGRVTVTTDTSTNTAYMELRSLKSDDTAVYYCARSSGWPHHYGMDVWGQGTTVTVSS
VL: DIVMTQSPLSLPVTPGEPASISCRSSQSLLHSNGFNYFDWYLQKPGQSPQLLIFLVSNRASGVPDRFSGSGSGTDFTLKISRVEAEDVGIYYCMQALQTPLTFGGGTKVEIK
B2: CL-74570 (antibody, V domains shown)
VH: EVQLVESGGGVIRPGGSLRLSCAASGFTFDDYGMSWVRQAPGKGLEWVSGINWIGDNTDYADSVKGRFTISRDNAKNSLYLQMNSLRAEDTALYYCARDYFGSGSYYNVPF
VL: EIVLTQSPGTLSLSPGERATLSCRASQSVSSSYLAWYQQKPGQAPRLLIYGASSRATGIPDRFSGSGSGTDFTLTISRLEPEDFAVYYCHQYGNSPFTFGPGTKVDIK

Legend:
[1] = target: T1, human ICOS expressed on the surface of …; assay: flow cytometry on CHO-S cells, purified IgG1
[2] = target: T2, mouse ICOS expressed on the surface of …; assay: flow cytometry on CHO-S cells, purified IgG1

Binder | fold above the average of geomean of the negative control [1] | fold above the average of geomean of the negative control [2]
B1 | > 10 fold | > 10 fold
B2 | > 10 fold | > 10 fold
